# Results: patent US20230407297A1, “BIOENGINEERED WNT5A THERAPEUTICS FOR ADVANCED CANCERS” (The Regents of the University of California, priority 2020, published 2023)
# Entries after “also recorded” stand apart in the source; their conditions may differ.
# B1: tRNA-siWnt5A-2: bioengineered tRNA-pre-miRNA chimera (human tRNA Leu / pre-miR-34a carrier) carrying Wnt5a siRNA #2, FIG. 8B, SEQ ID NO:21 (nucleic acid)
# chain: NNCNCAACANAAAAAACNNNGNGNAANACNNGNAACGCNGAANNCACCAGGANGGCCGAGNGGNNAAGGCGNNGGACNGGCCAGCNGNGAGNGNNNCNNCUAGGAAGAACUUGGAAGACAUNGNGAGCAANAGNAAGGAAGUGUCUUCCGGUCUUUUCCUACUAGAAGNGCNGCACGNNGNNGGCCCGANCCAANGGACANANGNCCGCGNGGGNNCGAACCCCACNCCNGGNACCACNGCAGANCCNNAGCGAAAGCNAAGGANNNNNNNN
# modifications: modified_base (1)..(2) t or u; modified_base (4)..(4) t or u; modified_base (10)..(10) t or u; modified_base (18)..(20) t or u; modified_base (22)..(22) t or u; modified_base (24)..(24) t or u; modified_base (27)..(27) t or u; modified_base (30)..(31) t or u; modified_base (33)..(33) t or u; modified_base (39)..(39) t or u; modified_base (43)..(44) t or u; modified_base (53)..(53) t or u; modified
# B2: tRNA-siWnt5A-1: bioengineered tRNA-pre-miRNA chimera (human tRNA Leu / pre-miR-34a carrier) carrying Wnt5a siRNA #1, FIG. 8A, SEQ ID NO:20 (nucleic acid)
# chain: NNCNCAACANAAAAAACNNNGNGNAANACNNGNAACGCNGAANNCACCAGGANGGCCGAGNGGNNAAGGCGNNGGACNGGCCAGCNGNGAGNGNNNCNNACAAACUGGUCCACGAUCUCCGNGNGAGCAANAGNAAGGAAUGGAGAUCGGGAUCCAGUUUGCUAGAAGNGCNGCACGNNGNNGGCCCGANCCAANGGACANANGNCCGCGNGGGNNCGAACCCCACNCCNGGNACCACNGCAGANCCNNAGCGAAAGCNAAGGANNNNNNNN
# modifications: modified_base (1)..(2) t or u; modified_base (4)..(4) t or u; modified_base (10)..(10) t or u; modified_base (18)..(20) t or u; modified_base (22)..(22) t or u; modified_base (24)..(24) t or u; modified_base (27)..(27) t or u; modified_base (30)..(31) t or u; modified_base (33)..(33) t or u; modified_base (39)..(39) t or u; modified_base (43)..(44) t or u; modified_base (53)..(53) t or u; modified
# What was measured:
# C4-2B MDVR cells = test: C4-2B MDVR cell number, combination with antiandrogens; type: cell-based
# Experimental: (§1) FIGS. 5A-5B. […] Resistant C4-2B MDVR and PS1172 CRC prostate cancer cells were treated with either enzalutamide (Enza) or Wnt5a siRNA (#1) or the combination (#1+Enza) for three days and 5 days, and the cell numbers were determined.
# FIGS. 6A-6C. […] Resistant C4-2B MDVR prostate cancer cells were treated with either enzalutamide (Enza, 20 uM) or tRNA-1 (10 nM) or tRNA-2 (10 nM) or the combination (combination) for 3 days and 6 days, and the cell numbers were determined.
# FIGS. 7A-7B. Combination of tRNA Wnt5a with antiandrogens in C4-2B MDVR cells. C4-2B MDVR cells were treated with tRNA Wnt5a and antiandrogens such as apalutamide (Apa), darolutamide (Daro), enzalutamide (enza) individually or combination for 3 days and 6 days and the cell number was determined.
# (§2) Enzalutamide resistant C4-2B MDVR cells and PS1172 CRC cells were treated with either enzalutamide (20 μM) or Wnt5a siRNA (#1) or their combination (enza+#1) for 3 days and 5 days (C4-2B MDVR cells) or 3 days and 6 days (PS1172 CRC cells), and the cell numbers were determined.
# Resistant C4-2B MDVR prostate cancer cells were treated with either enzalutamide (Enza, 20 uM) or tRNA-1 (10 nM) or tRNA-2 (10 nM) or their combination for 3 days and 6 days, and the cell numbers were determined.
# Knockdown of Wnt5a by tRNA-Wnt5a siRNA enhances anti-androgen (enzalutamide, apalutamide, darolutamide) treatments (FIG. 7A). Resistant C4-2B MDVR cells were treated with tRNA Wnt5a siRNA-2 and antiandrogens such as apalutamide (Apa), darolutamide (Daro), enzalutamide (enza) individually or their combination for 3 days and 6 days and the cell number was determined.
# Wnt5A = Wnt5A expression in CWR22rv1 cells; type: cell-based
# PS1172 CRC cells = test: PS1172 CRC cell number, combination with enzalutamide; type: cell-based; conditions: Wnt5a siRNA + enzalutamide 20 μM, 3 days and 6 days
# Experimental: as §1, §2
# LuCaP 35CR PDX tumors = test: LuCaP 35CR patient derived xenograft model, combination with enzalutamide (Example 3); type: in vivo, mouse; conditions: single treatment
# From the text: (§3) FIGS. 9A-9E. Targeting Wnt5A by BERA-Wnt5a siRNA resensitizes LuCaP35CR PDX organoids and tumor growth to enzalutamide treatment. FIG. 9A: Organoids derived from the LuCaP PDX model were established in an ex vivo 3D Matrigel format and treated with bioengineered BERA-Wnt5a siRNA. […] FIG. 9D: Mouse body weight was unaffected by all of the treatments.
# (§4) To examine if targeting Wnt5a enhances enzalutamide treatment in resistant prostate cancer, we examined the combinational effects of targeting Wnt5a and enzalutamide in an ex vivo model. Organoids derived from the LuCaP PDX model were established in an ex vivo 3D Matrigel format and treated with bioengineered BERA-Wnt5a siRNA. […] To further determine the anti-tumor effects of Wnt5a inhibition in vivo, we employed a LuCaP 35CR patient derived xenograft model, which was treated with bioengineered BERA-Wnt5a siRNA.
# LuCaP 35CR organoids = test: LuCaP 35CR organoids, ex vivo 3D Matrigel; type: cell-based; conditions: single treatment
# From the text: as §3, §4
# [1] = tested on: enzalutamide resistant CWR22rv1 cells; test: CWR22rv1 cell growth, alone and with enzalutamide; type: cell-based; conditions: for improvement of enzalutamide treatment: CWR22rv1 cells, combined with enzalutamide; for cell growth: enzalutamide resistant CWR22rv1 cells, single agent
# From the text: In addition to spectrometry and gel electrophoresis analyses of target Wnt5A-siRNAs during the purification described above, we conducted HPLC analysis to validate the purity of isolated siRNAs and LC-MS studies to verify RNA sequence and identify possible posttranscriptional modifications.
molecule,measurement,setting,value
"Wnt5a siRNA (#1): siRNA specific to Wnt5a, 5′-ACAAACUGGUCCACGAUCUCCGUGC-3′ (expressed or natural sequence)",effect on enzalutamide treatment (cell numbers),"C4-2B MDVR cells; Wnt5a siRNA + enzalutamide 20 μM, 3 days and 5 days",synergistically enhanced enzalutamide treatment; also recorded: re-sensitize cells to enzalutamide
same,Wnt5A expression,Wnt5A,downregulated Wnt5A expression
same,effect on enzalutamide treatment (cell numbers),PS1172 CRC cells,synergistically enhanced enzalutamide treatment; also recorded: re-sensitize cells to enzalutamide
CNC(=O)c1ccc(N2C(=S)N(c3ccc(C#N)c(C(F)(F)F)c3)C(=O)C2(C)C)cc1F [enzalutamide],PSA expression,LuCaP 35CR PDX tumors,without reaching significance
same,tumor growth,LuCaP 35CR PDX tumors,resistant
same,organoid response,LuCaP 35CR organoids,resistant
B1,effect on enzalutamide treatment (cell numbers),"C4-2B MDVR cells; chimera 10 nM + Enza 20 uM, 3 days and 6 days, listed as tRNA-Wnt5a siRNA-2",enhanced enzalutamide; also recorded: synergizes enzalutamide
same,effect on apalutamide treatment (cell number),"C4-2B MDVR cells; combination with apalutamide, 3 days and 6 days",enhances
same,effect on darolutamide treatment (cell number),"C4-2B MDVR cells; combination with darolutamide, 3 days and 6 days",enhances
same,effect on enzalutamide treatment (cell number),"C4-2B MDVR cells; combination with enzalutamide, 3 days and 6 days",enhances
same,Wnt5A expression,Wnt5A,downregulated Wnt5A expression
same,improvement of enzalutamide treatment,[1],improved enzalutamide treatment; also recorded: improved enza treatment
same,cell growth,[1],inhibited cell growth
B2,effect on enzalutamide treatment (cell numbers),"C4-2B MDVR cells; chimera 10 nM + Enza 20 uM, 3 days and 6 days, listed as tRNA-Wnt5a siRNA-1",enhanced enzalutamide; also recorded: synergizes enzalutamide
same,Wnt5A expression,Wnt5A,downregulated Wnt5A expression
same,improvement of enzalutamide treatment,[1],improved enzalutamide treatment; also recorded: improved enza treatment
same,cell growth,[1],inhibited cell growth
